Experiments:
[1] = molecular target: L283C (single-Cys mutant of FT-HT-Xa) (S. cerevisiae) (UniProt D6VTK4); test: SDS-PAGE and western blot of membranes
[2] = molecular target: L283C (single-Cys mutant of FT-HT-Xa) (S. cerevisiae) (UniProt D6VTK4); test: cross-linking
[3] = molecular target: L283C (single-Cys mutant of FT-HT-Xa) (S. cerevisiae) (UniProt D6VTK4); test: cross-linking; remark: listed apart in the source
[4] = molecular target: L283C (single-Cys mutant of FT-HT-Xa) (S. cerevisiae) (UniProt D6VTK4); test: cross-linking; remark: listed apart in the source
[5] = molecular target: L289C (single-Cys mutant of FT-HT-Xa) (S. cerevisiae) (UniProt D6VTK4); test: SDS-PAGE and western blot of membranes
[6] = molecular target: L289C (single-Cys mutant of FT-HT-Xa) (S. cerevisiae) (UniProt D6VTK4); test: cross-linking
[7] = molecular target: L289C (single-Cys mutant of FT-HT-Xa) (S. cerevisiae) (UniProt D6VTK4); test: cross-linking; remark: listed apart in the source
[8] = molecular target: L289C (single-Cys mutant of FT-HT-Xa) (S. cerevisiae) (UniProt D6VTK4); test: cross-linking; remark: listed apart in the source
[9] = molecular target: A281C (single-Cys mutant of FT-HT-Xa) (S. cerevisiae) (UniProt D6VTK4); test: SDS-PAGE and western blot of membranes
[10] = molecular target: A281C (single-Cys mutant of FT-HT-Xa) (S. cerevisiae) (UniProt D6VTK4); test: cross-linking
[11] = molecular target: A281C (single-Cys mutant of FT-HT-Xa) (S. cerevisiae) (UniProt D6VTK4); test: cross-linking; remark: listed apart in the source
[12] = molecular target: A281C (single-Cys mutant of FT-HT-Xa) (S. cerevisiae) (UniProt D6VTK4); test: cross-linking; remark: listed apart in the source
[13] = molecular target: L284C (single-Cys mutant of FT-HT-Xa) (S. cerevisiae) (UniProt D6VTK4); test: SDS-PAGE and western blot of membranes
[14] = molecular target: L284C (single-Cys mutant of FT-HT-Xa) (S. cerevisiae) (UniProt D6VTK4); test: cross-linking
[15] = molecular target: L284C (single-Cys mutant of FT-HT-Xa) (S. cerevisiae) (UniProt D6VTK4); test: cross-linking; remark: listed apart in the source
[16] = molecular target: L284C (single-Cys mutant of FT-HT-Xa) (S. cerevisiae) (UniProt D6VTK4); test: cross-linking; remark: listed apart in the source
[17] = molecular target: V280C (single-Cys mutant of FT-HT-Xa) (S. cerevisiae) (UniProt D6VTK4); test: SDS-PAGE and western blot of membranes
[18] = molecular target: V280C (single-Cys mutant of FT-HT-Xa) (S. cerevisiae) (UniProt D6VTK4); test: cross-linking
[19] = molecular target: V280C (single-Cys mutant of FT-HT-Xa) (S. cerevisiae) (UniProt D6VTK4); test: cross-linking; remark: listed apart in the source
[20] = molecular target: V280C (single-Cys mutant of FT-HT-Xa) (S. cerevisiae) (UniProt D6VTK4); test: cross-linking; remark: listed apart in the source
[21] = molecular target: V286C (single-Cys mutant of FT-HT-Xa) (S. cerevisiae) (UniProt D6VTK4); test: SDS-PAGE and western blot of membranes
[22] = molecular target: V286C (single-Cys mutant of FT-HT-Xa) (S. cerevisiae) (UniProt D6VTK4); test: cross-linking
[23] = molecular target: V286C (single-Cys mutant of FT-HT-Xa) (S. cerevisiae) (UniProt D6VTK4); test: cross-linking; remark: listed apart in the source
[24] = molecular target: V286C (single-Cys mutant of FT-HT-Xa) (S. cerevisiae) (UniProt D6VTK4); test: cross-linking; remark: listed apart in the source
[25] = molecular target: A285C (single-Cys mutant of FT-HT-Xa) (S. cerevisiae) (UniProt D6VTK4); test: SDS-PAGE and western blot of membranes
[26] = molecular target: A285C (single-Cys mutant of FT-HT-Xa) (S. cerevisiae) (UniProt D6VTK4); test: cross-linking
[27] = molecular target: A285C (single-Cys mutant of FT-HT-Xa) (S. cerevisiae) (UniProt D6VTK4); test: cross-linking; remark: listed apart in the source
[28] = molecular target: A285C (single-Cys mutant of FT-HT-Xa) (S. cerevisiae) (UniProt D6VTK4); test: cross-linking; remark: listed apart in the source
[29] = molecular target: T282C (single-Cys mutant of FT-HT-Xa) (S. cerevisiae) (UniProt D6VTK4); test: SDS-PAGE and western blot of membranes
[30] = molecular target: T282C (single-Cys mutant of FT-HT-Xa) (S. cerevisiae) (UniProt D6VTK4); test: cross-linking
[31] = molecular target: T282C (single-Cys mutant of FT-HT-Xa) (S. cerevisiae) (UniProt D6VTK4); test: cross-linking; remark: listed apart in the source
[32] = molecular target: T282C (single-Cys mutant of FT-HT-Xa) (S. cerevisiae) (UniProt D6VTK4); test: cross-linking; remark: listed apart in the source
[33] = molecular target: S288C (single-Cys mutant of FT-HT-Xa) (S. cerevisiae) (UniProt D6VTK4); test: SDS-PAGE and western blot of membranes
[34] = molecular target: S288C (single-Cys mutant of FT-HT-Xa) (S. cerevisiae) (UniProt D6VTK4); test: cross-linking
[35] = molecular target: S288C (single-Cys mutant of FT-HT-Xa) (S. cerevisiae) (UniProt D6VTK4); test: cross-linking; remark: listed apart in the source
[36] = molecular target: S288C (single-Cys mutant of FT-HT-Xa) (S. cerevisiae) (UniProt D6VTK4); test: cross-linking; remark: listed apart in the source
[37] = molecular target: L287C (single-Cys mutant of FT-HT-Xa) (S. cerevisiae) (UniProt D6VTK4); test: SDS-PAGE and western blot of membranes
[38] = molecular target: L287C (single-Cys mutant of FT-HT-Xa) (S. cerevisiae) (UniProt D6VTK4); test: cross-linking
[39] = molecular target: L287C (single-Cys mutant of FT-HT-Xa) (S. cerevisiae) (UniProt D6VTK4); test: cross-linking; remark: listed apart in the source
[40] = molecular target: L287C (single-Cys mutant of FT-HT-Xa) (S. cerevisiae) (UniProt D6VTK4); test: cross-linking; remark: listed apart in the source

**Q.** How did the percent dimer [1] turn out when “L283C (single-Cys mutant of FT-HT-Xa) (from UniProt D6VTK4 1-431) (receptor)” was run?
**A.** 16.6%

**Q.** What about the percent dimer [2] of the same substance?
**A.** 13.3%

**Q.** What about the percent dimer [3] of the same substance?
**A.** 15.7%

**Q.** What about the percent dimer [4] of the same substance?
**A.** 10.7%

**Q.** How did the percent dimer [5] turn out when “L289C (single-Cys mutant of FT-HT-Xa) (from UniProt D6VTK4 1-431) (receptor)” was run?
**A.** 26.8%

**Q.** What about the percent dimer [6] of the same substance?
**A.** 50.2%

**Q.** And the percent dimer [7]?
**A.** 61%

**Q.** What about the percent dimer [8] of the same substance?
**A.** 40.9%

**Q.** For “A281C (single-Cys mutant of FT-HT-Xa) (from UniProt D6VTK4 1-431) (receptor)”, which percent dimer [9] is on record?
**A.** 16.8%

**Q.** What about the percent dimer [10] of the same substance?
**A.** 14.3%

**Q.** What about the percent dimer [11] of the same substance?
**A.** 11.9%

**Q.** And the percent dimer [12]?
**A.** 11.3%

**Q.** What does the source list for “L284C (single-Cys mutant of FT-HT-Xa) (from UniProt D6VTK4 1-431) (receptor)”?
**A.** percent dimer [13]: 15.2%; percent dimer [14]: 17.7%; percent dimer [15]: 12%; percent dimer [16]: 15.3%

**Q.** Which percent dimer [17] does the source give for “V280C (single-Cys mutant of FT-HT-Xa) (from UniProt D6VTK4 1-431) (receptor)” here?
**A.** 15.3%

**Q.** And the percent dimer [18]?
**A.** 16.3%

**Q.** And the percent dimer [19]?
**A.** 14.7%

**Q.** And the percent dimer [20]?
**A.** 12.4%

**Q.** Which results are given for “V286C (single-Cys mutant of FT-HT-Xa) (from UniProt D6VTK4 1-431) (receptor)”?
**A.** percent dimer [21]: 15.6%; percent dimer [22]: 13.2%; percent dimer [23]: 17%; percent dimer [24]: 15.9%

**Q.** With “A285C (single-Cys mutant of FT-HT-Xa) (from UniProt D6VTK4 1-431) (receptor)” as the substance, how does the percent dimer [25] read?
**A.** 16.5%

**Q.** What about the percent dimer [26] of the same substance?
**A.** 16.5%

**Q.** And the percent dimer [27]?
**A.** 53.5%

**Q.** And the percent dimer [28]?
**A.** 17.7%

**Q.** What does the source list for “T282C (single-Cys mutant of FT-HT-Xa) (from UniProt D6VTK4 1-431) (receptor)”?
**A.** percent dimer [29]: 11.7%; percent dimer [30]: 12%; percent dimer [31]: 15.4%; percent dimer [32]: 11.7%

**Q.** How did the percent dimer [33] turn out when “S288C (single-Cys mutant of FT-HT-Xa) (from UniProt D6VTK4 1-431) (receptor)” was run?
**A.** 14.7%

**Q.** What about the percent dimer [34] of the same substance?
**A.** 11.5%

**Q.** And the percent dimer [35]?
**A.** 14.7%

**Q.** And the percent dimer [36]?
**A.** 12.6%

**Q.** With “L287C (single-Cys mutant of FT-HT-Xa) (from UniProt D6VTK4 1-431) (receptor)” as the substance, how does the percent dimer [37] read?
**A.** 16%

**Q.** What about the percent dimer [38] of the same substance?
**A.** 11.3%

**Q.** What about the percent dimer [39] of the same substance?
**A.** 14.3%

**Q.** And the percent dimer [40]?
**A.** 16%

Source: publication PMC2783235
